The numbers were not newly measured in PMC4101496, which cites them from elsewhere.

The term pKa denotes the pH at which an ionisable group is half protonated.

The target of this data set is Asp14 (UniProt position 14, FGAHADDVEIG). The experiment in a line: kinetics. The note with it: WT enzyme under turnover; pH profiles of Zn2+-BshB and Co2+-BshB reported as identical.

Consider “N-acetylglucosamine-malate deacetylase (BshB) (Bacillus anthracis (per Table 1 accession; the review says BshB from both B. anthracis and B. cereus (BC1534) has been characterised and does not state which gave the pH profile))”, for which the pKa is given as 8.5.
